Values belong to the molecule of their own block, whether it stands above or below them.
Legend:
[1] = target: T1, CtNAT10 (Chaetomium thermophilum NAT10; Kre33) (Thermochaetoides thermophila, UniProt G0S273); assay: differential scanning fluorimetry, SYPRO orange; assay type: binding; conditions: apo Tm 42.0 ± 0.3 °C, 5 mM MgCl2, Hepes pH 7.5, Tm with ligand, not a shift
T1 construct: codon-optimised synthetic gene; Sf9 (functional assays and 9B0I) or E. coli (9AYM, 9B0E)
T1 sequence (G0S273 1-1073): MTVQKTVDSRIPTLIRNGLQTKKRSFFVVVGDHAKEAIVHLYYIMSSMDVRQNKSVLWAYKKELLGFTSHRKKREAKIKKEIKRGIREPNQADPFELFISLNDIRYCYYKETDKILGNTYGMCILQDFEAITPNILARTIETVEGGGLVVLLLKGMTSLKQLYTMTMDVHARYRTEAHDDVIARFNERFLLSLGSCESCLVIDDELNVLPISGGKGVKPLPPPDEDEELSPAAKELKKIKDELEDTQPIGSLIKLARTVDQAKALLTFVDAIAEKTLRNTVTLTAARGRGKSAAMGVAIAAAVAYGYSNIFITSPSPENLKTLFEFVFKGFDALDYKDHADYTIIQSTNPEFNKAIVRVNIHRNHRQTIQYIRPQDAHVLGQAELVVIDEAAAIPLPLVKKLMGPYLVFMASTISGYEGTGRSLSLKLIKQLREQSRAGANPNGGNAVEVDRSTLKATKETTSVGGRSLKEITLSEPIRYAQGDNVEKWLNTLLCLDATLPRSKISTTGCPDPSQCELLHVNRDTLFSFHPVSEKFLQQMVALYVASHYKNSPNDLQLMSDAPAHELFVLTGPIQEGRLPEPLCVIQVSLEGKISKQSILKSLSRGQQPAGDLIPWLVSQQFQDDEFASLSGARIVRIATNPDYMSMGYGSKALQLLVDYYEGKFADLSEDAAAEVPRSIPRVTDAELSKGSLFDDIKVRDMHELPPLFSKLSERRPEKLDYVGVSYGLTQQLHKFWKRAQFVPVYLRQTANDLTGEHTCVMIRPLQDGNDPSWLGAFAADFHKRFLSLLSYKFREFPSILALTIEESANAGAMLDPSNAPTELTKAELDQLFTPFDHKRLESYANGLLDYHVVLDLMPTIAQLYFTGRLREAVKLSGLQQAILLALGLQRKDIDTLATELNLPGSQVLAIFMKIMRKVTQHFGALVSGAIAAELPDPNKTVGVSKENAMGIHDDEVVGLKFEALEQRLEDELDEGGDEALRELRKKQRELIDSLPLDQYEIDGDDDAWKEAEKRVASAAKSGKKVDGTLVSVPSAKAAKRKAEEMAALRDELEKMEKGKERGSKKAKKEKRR

[2] = target: Chaetomium thermophilum NAT10 (CtNAT10), E. coli-produced recombinant (Chaetomium thermophilum); assay: mass photometry; 1 ul of 200 nM protein stock into 19 ul dilution buffer (10 nM); 300 mM NaCl, 25 mM Hepes-NaOH pH 7.5, 1 mM TCEP; room temperature
[3] = target: Chaetomium thermophilum NAT10 (CtNAT10), Sf9-produced recombinant (Chaetomium thermophilum); assay: as above
CtNAT10 WT [4] = target: T2, CtNAT10 WT (Chaetomium thermophilum, UniProt G0S273 1-1073); assay: EMSA; no THUMPD1; 0.5 mM ATP, 0.1 mM acetyl-CoA; 50 mM Hepes-KOH pH 7.6, 90 mM NaCl (Fig 1B) or 75 mM NaCl + 0.2 mg/ml BSA (Fig S4A), 12 mM KCl, 10 mM MgCl2, 1 mM DTT, 0.5 mM ATP, 0.1 mM acetyl-CoA; Fig 1B 15; conditions: protein: recombinant; tags: N-terminal 6xHis; chain copies: 2; tRNA fold
T2 sequence: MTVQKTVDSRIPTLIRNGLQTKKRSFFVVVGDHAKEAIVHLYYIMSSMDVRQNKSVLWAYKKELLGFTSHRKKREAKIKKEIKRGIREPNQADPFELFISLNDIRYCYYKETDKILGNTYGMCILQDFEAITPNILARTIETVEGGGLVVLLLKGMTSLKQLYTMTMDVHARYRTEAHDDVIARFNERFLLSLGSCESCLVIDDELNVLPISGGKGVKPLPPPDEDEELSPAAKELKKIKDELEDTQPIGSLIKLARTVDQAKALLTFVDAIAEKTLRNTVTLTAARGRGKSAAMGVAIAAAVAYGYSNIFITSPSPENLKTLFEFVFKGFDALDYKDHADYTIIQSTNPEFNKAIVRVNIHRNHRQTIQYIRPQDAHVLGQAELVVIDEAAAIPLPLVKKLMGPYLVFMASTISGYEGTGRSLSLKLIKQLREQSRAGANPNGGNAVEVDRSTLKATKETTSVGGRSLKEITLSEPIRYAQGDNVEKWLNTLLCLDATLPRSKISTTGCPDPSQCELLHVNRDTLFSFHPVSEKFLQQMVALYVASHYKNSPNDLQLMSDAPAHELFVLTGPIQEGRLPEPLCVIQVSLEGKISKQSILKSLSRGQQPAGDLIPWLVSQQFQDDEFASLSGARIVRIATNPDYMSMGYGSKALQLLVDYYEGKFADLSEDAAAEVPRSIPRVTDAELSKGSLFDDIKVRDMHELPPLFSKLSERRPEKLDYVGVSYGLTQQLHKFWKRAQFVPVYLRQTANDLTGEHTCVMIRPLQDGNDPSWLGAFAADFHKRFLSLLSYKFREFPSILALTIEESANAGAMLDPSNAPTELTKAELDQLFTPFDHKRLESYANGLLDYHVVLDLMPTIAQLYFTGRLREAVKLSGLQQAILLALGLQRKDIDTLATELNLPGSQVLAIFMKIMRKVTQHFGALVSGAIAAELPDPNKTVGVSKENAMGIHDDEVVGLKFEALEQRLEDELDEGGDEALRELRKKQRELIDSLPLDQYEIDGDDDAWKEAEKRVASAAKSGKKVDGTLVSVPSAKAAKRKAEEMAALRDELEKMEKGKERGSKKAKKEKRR

CtNAT10 WT [5] = target: T2, CtNAT10 WT; assay: EMSA; 0.5 mM ATP, 0.1 mM acetyl-CoA; 50 mM Hepes-KOH pH 7.6, 90 mM NaCl (Fig 1B) or 75 mM NaCl + 0.2 mg/ml BSA (Fig S4A), 12 mM KCl, 10 mM MgCl2, 1 mM DTT, 0.5 mM ATP, 0.1 mM acetyl-CoA; Fig 1B 15; conditions: protein: recombinant; tags: N-terminal 6xHis; chain copies: 2; tRNA fold

- Tm ([1]; ligand series 0.25-2500 μM): 53.8 ± 0.1 °C
Molecule: Nc1ncnc2c1ncn2[C@@H]1O[C@H](COP(=O)(O)OP(=O)(O)OP(=O)(O)O)[C@@H](O)[C@H]1O [ATP]

- Tm ([1]; ligand series 0.25-2500 μM): 46.1 ± 0.1 °C
Molecule: CC(=O)SCCNC(=O)CCNC(=O)[C@H](O)C(C)(C)COP(=O)(O)OP(=O)(O)OC[C@H]1O[C@@H](n2cnc3c(N)ncnc32)[C@H](O)[C@@H]1OP(=O)(O)O [acetyl-CoA]

- Tm ([1]; ligand series 0.20-2000 μM): 46.4 ± 0.1 °C
Molecule: CC(C)(COP(=O)(O)OP(=O)(O)OC[C@H]1O[C@@H](n2cnc3c(N)ncnc32)[C@H](O)[C@@H]1OP(=O)(O)O)[C@@H](O)C(=O)NCCC(=O)NCCSCC(=O)Nc1ccn([C@@H]2O[C@H](CO)[C@@H](O)[C@H]2O)c(=O)n1 [cytidine-amide-CoA]

- stoichiometry N [2]: 2
Molecule: Chaetomium thermophilum NAT10 (CtNAT10), E. coli-produced recombinant (enzyme)

- stoichiometry N [3]: 2
Molecule: Chaetomium thermophilum NAT10 (CtNAT10), Sf9-produced recombinant (enzyme)

B1: CttRNAAla (IVT) (structured_RNA)
RNA: GGGCGUGUAGCUCAGUUGGUAGAGCGUUCGCUUAGCAUGCGAGAGGUCCUGGGUUCGAUUCCCAGCCCGUCCA
- binding result (CtNAT10 WT [4]): binds

B2: ct-tRNASer (synthetic) (structured_RNA)
RNA: GACAACUUGGCCGAGUGGUUAAGGCGACAGACUUGAAAUCUGUUGGGUUCGCCCUCACAGGUUCGAAUCCUGUAGUUGUCG
- binding result (CtNAT10 WT [5]): binds

B3: ct-tRNALeu (synthetic) (structured_RNA)
RNA: GGCAAGAUGGCCGAGCGGUCCAAGGCGCCAGGUUCAGGUCCUGGUCUCCGCAAGGGGGCGUGAGUUCGAAUCUCACUCUUGUCA
- binding result (CtNAT10 WT [5]): binds
